From CN111138528A (INST MILITARY MEDICINE ACADEMY MILITARY SCIENCES PLA, dated 2020) come the findings set out here.

Test [1] deals with T1, EBOV GP (Ebola virus (EBOV), UniProt Q05320 33-650).
T1 sequence: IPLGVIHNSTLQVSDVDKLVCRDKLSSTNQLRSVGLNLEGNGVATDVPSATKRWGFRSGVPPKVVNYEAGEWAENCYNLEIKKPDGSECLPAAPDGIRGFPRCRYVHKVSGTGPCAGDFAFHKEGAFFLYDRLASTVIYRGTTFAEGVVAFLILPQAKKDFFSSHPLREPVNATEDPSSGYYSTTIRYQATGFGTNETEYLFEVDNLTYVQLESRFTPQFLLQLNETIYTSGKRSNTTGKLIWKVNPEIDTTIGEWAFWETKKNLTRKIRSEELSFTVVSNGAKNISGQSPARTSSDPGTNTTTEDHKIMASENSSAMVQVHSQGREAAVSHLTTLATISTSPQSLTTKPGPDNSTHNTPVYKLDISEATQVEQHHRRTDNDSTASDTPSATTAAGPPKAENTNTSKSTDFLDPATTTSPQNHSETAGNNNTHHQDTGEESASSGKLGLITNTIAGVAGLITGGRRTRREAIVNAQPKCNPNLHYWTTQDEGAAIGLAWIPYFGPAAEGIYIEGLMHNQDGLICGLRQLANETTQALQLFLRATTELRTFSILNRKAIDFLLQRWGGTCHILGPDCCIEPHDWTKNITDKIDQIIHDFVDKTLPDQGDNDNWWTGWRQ
In words: ELISA, GP coated at 1 μg/mL, 5A8 from 10 μg/mL in 1:3 dilutions.

For test [2], the target named is GP 33-310;463-558 (Ebola virus (EBOV), UniProt Q05320 33-310; Q05320 463-558). In words: ELISA, truncated GP coated, 5A8 titrated (method of Example 2). In general terms: In an ELISA, binding on a coated surface is turned into a signal by an enzyme label.
Test [3] has as its target GP 158-295 (Ebola virus (EBOV), UniProt Q05320 158-295). The description is as above.
Test [4] has as its target sGP (Ebola virus (EBOV), UniProt P60170 33-324). Described as above.
Test [5] has as its target GP 227-295 (Ebola virus (EBOV), UniProt Q05320 227-295). Described as above.
Test [6] deals with GP 95-295 (Ebola virus (EBOV), UniProt Q05320 95-295). The description is as above.
In test [7] the target is GP1 (Ebola virus (EBOV), UniProt Q05320 33-501). The description is as above.
Test [8] has as its target T2, RESTV GP (RESTV, UniProt Q66799 34-651).
T2 sequence: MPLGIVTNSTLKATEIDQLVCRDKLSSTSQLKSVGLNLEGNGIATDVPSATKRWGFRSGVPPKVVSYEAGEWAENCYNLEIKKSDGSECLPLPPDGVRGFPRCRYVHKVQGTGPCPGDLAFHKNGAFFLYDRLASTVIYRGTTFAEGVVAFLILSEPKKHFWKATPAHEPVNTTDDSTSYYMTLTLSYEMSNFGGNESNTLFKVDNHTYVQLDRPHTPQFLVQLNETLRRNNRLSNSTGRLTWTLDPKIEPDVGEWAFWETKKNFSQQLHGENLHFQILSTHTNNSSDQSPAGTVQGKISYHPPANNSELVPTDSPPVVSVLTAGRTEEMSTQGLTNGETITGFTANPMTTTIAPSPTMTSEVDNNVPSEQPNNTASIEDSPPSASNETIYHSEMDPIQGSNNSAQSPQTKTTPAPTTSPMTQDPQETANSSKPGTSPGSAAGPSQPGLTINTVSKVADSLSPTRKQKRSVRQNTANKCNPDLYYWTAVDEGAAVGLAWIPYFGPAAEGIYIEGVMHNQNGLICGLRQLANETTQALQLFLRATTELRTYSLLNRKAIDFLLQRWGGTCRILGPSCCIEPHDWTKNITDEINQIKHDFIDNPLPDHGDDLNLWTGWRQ
In words: ELISA, GP coated at 1 μg/mL, 5A8 in 1:3 dilutions.

For test [9], the target named is T3, SUDV GP (SUDV, UniProt Q7T9D9 33-650).
T3 sequence: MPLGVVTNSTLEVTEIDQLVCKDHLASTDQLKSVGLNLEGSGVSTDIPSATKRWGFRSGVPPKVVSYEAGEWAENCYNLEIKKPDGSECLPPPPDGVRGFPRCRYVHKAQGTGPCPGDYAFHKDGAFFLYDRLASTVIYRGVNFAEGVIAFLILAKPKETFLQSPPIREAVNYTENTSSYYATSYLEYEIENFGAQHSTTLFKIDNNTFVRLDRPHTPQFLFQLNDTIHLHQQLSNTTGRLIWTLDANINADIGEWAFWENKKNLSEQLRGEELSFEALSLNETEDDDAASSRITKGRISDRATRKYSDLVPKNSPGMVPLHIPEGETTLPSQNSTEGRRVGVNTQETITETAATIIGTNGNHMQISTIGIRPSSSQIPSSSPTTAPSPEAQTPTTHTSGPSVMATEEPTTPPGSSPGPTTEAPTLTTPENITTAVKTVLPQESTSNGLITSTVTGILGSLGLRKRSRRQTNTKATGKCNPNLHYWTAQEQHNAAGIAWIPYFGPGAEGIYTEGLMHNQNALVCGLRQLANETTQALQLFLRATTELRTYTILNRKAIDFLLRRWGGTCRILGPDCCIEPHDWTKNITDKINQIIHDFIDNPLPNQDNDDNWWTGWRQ
In words: ELISA, GP coated at 1 μg/mL, 5A8 in 1:3 dilutions.

B1: 单克隆抗体5A8 (antibody, V domains shown)
VH: EVQLLESGGGLVKPGGSLRLSCAASGFTFSDYYMNWIRQAPGKGLEWVSYISSSGKTIYYADSVKGRFTISRDNAKKSLYLQMNSLRAEDTAVYYCARDREIVISTTILLGSDHYAMDVWGQGTTVTVSS
VL: DIQMTQSPFTLSASVGDRVTITCRASQSINSYLNWYQQKPGKAPKLLIYSASSLQSGVPSRFSGSGSGTDFTLTISSLQPEDFAIYYCQQTYRTPYTFGQGTKVEIKT
For the molecule B1, the EC50 in [1] turned out to be 0.014 µg/mL; in test [2] it was 4.9 ng/mL; in [3] it was 0.02 µg/mL; in test [4] it was 7.5 ng/mL; in test [5], 0.0126 µg/mL; in test [6] it was 7.1 ng/mL. This molecule also displayed an EC50 in [7] of 6.9 ng/mL. For the same molecule, the binding result in test [8] and in test [9] was “no binding (tested: 10μg/mL (highest concentration tested))” in each case.

What is called EC50 is the concentration that produces a half-maximal response. A higher EC50 goes with a less potent agent.
